Source: the supplement of paper PMC7877785
± gives the uncertainty stated by the source.

Assay: self-splicing fitness, log relative to wild type (ln ratio); higher = more splicing; Tetrahymena group I intron in knt gene, E. coli kanamycin selection, DiMSum; sequences stand for … in CUCUCU…GGAGGGAAAAGUUAUCAGGCAUGCACCUGGUAGCUAGUCUUUAAACCAAUAGAUUGCAUCGGUUUAAAAGGCAAGACCGUCAAAUUGCGGGAAAGGGGUCAACAGCCGUUCAGUACCAAGUCUCAGGGGAAACUUUGAGAUGGCCUUGCAAAGGGUAUGGUAAUAAGCUGACGGACAUGGUCCUAACCACGCAGCCAAGUCCUAAGUCAACAGAUCUUCUGUUGAUAUGGAUGCAGUUCACAGACUAAAUGUCGGUCGGGGAAGAUGUAUUCUUCUCAUAAGAUAUAGUCGGACCUCUCCUUAAUGGGAGCUAGCGGAUGAAGUGAUGCAACACUGGAGCCGCUGGGAACUAAUUUGUAUGCGAAAGUAUAUUGAUUAGUUUUGGAGUACUCGUGGUCG
How it was run: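 Colonies from six replicate transformations of E. coli BL21(DE3) were pooled and amplicon-sequenced on an Illumina HiSeq 2500. The library placed an intron with all eight P1ex-region nucleotides randomised inside the knt kanamycin-resistance gene on pET-22b(+), and cells grew overnight at 37°C or 30°C on LB agar with or without 25 μg/mL kanamycin (plus 100 μg/mL carbenicillin, 50 μM IPTG, 0.2% rhamnose). Fitness is the DiMSum error-weighted combination of wild-type-normalised replicate fold changes, kanamycin versus none.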

Row | Sequence | self-splicing fitness (ln) (30 °C) | self-splicing fitness (ln) (37 °C)
1 | GUUCAGCAAUAUUACGAAAA | -0.216 ± 0.13 | 0.45 ± 0.15
2 | AUAAAGCAAUAUUACGCGAG | -1.08 ± 0.075 | 0.0257 ± 0.095
3 | AGGUAGCAAUAUUACGUCAA | -2.28 ± 0.023 | -1.6 ± 0.036
4 | GUCCAGCAAUAUUACGUAGC | -0.399 ± 0.062 | -0.149 ± 0.075
5 | UGUGAGCAAUAUUACGCACC | -1.27 ± 0.21 | -1.14 ± 0.22
6 | GGUGAGCAAUAUUACGUAUA | -3.76 ± 0.29 | -3.25 ± 0.37
7 | UAGCAGCAAUAUUACGGACA | -0.821 ± 0.11 | -0.11 ± 0.13
8 | ACGCAGCAAUAUUACGUACU | -1.12 ± 0.077 | -0.434 ± 0.088
9 | UUAAAGCAAUAUUACGAUGU | -1.91 ± 0.1 | -0.671 ± 0.15
10 | UAUAAGCAAUAUUACGAUUG | -1.48 ± 0.11 | -0.744 ± 0.13
11 | GUCGAGCAAUAUUACGAUGG | -3.01 ± 0.28 | -1.85 ± 0.18
12 | GCUUAGCAAUAUUACGGCAA | -2.6 ± 0.17 | -2.6 ± 0.17
13 | CUUCAGCAAUAUUACGGUAU | -3.47 ± 0.35 | -2 ± 0.2
14 | CGAGAGCAAUAUUACGCGUA | -3.31 ± 0.19 | -2.67 ± 0.29
15 | GUAUAGCAAUAUUACGUCUU | -1.64 ± 0.14 | 0.0317 ± 0.13
16 | UGUGAGCAAUAUUACGACCG | -1.22 ± 0.19 | -0.38 ± 0.21
17 | AGGUAGCAAUAUUACGUAUA | -2.6 ± 0.023 | -1.45 ± 0.036
18 | GUCUAGCAAUAUUACGUGGU | -2.5 ± 0.09 | -0.907 ± 0.078
19 | CCCCAGCAAUAUUACGCCAU | -2.14 ± 0.12 | -2.32 ± 0.17
20 | UCUGAGCAAUAUUACGUGAG | -1.86 ± 0.11 | -0.646 ± 0.097
21 | UUACAGCAAUAUUACGCUUU | -3.28 ± 0.25 | -2.08 ± 0.18
22 | GAGAAGCAAUAUUACGCCUU | -2.46 ± 0.26 | -0.767 ± 0.27
23 | AGACAGCAAUAUUACGGAGG | -3.35 ± 0.18 | -2.48 ± 0.23
24 | GAGAAGCAAUAUUACGCAUC | -3.12 ± 0.43 | -2.6 ± 0.35

Row | Sequence | self-splicing fitness (ln) (30 °C) | self-splicing fitness (ln) (37 °C)
25 | GUGUAGCAAUAUUACGUAGA | -3.14 ± 0.25 | -1.8 ± 0.36
26 | ACUAAGCAAUAUUACGCAAC | -3.28 ± 0.26 | -1.17 ± 0.27
27 | ACAAAGCAAUAUUACGUUCA | -1.2 ± 0.068 | -0.708 ± 0.076
28 | AGAUAGCAAUAUUACGUUGG | -4.65 ± 0.46 | -2.57 ± 0.2
29 | UAACAGCAAUAUUACGUCCU | -0.956 ± 0.085 | -0.192 ± 0.1
30 | CGCUAGCAAUAUUACGUACU | -2.86 ± 0.15 | -0.0116 ± 0.18
31 | UGGAAGCAAUAUUACGGUAU | -3.09 ± 0.38 | –
32 | CUCGAGCAAUAUUACGAUCA | -2.04 ± 0.4 | –
33 | UUUGAGCAAUAUUACGGUUA | -2 ± 0.17 | -1.57 ± 0.15
34 | GUAAAGCAAUAUUACGCUUG | -2.17 ± 0.15 | -1.12 ± 0.17
35 | UGAUAGCAAUAUUACGAGCU | -1.44 ± 0.15 | -0.828 ± 0.17
36 | CAGCAGCAAUAUUACGAUCG | -0.0679 ± 0.074 | 0.219 ± 0.094
37 | ACCAAGCAAUAUUACGUAAC | -3.94 ± 0.17 | -2.19 ± 0.16
38 | AGUAAGCAAUAUUACGCUCC | -3.21 ± 0.28 | -1.18 ± 0.2
39 | GCUAAGCAAUAUUACGUACG | -1.67 ± 0.1 | -1.13 ± 0.1
40 | CUUCAGCAAUAUUACGCAUA | -4.27 ± 0.37 | -1.82 ± 0.17
41 | CCUCAGCAAUAUUACGUGGC | -3.94 ± 0.22 | -3.01 ± 0.24
42 | CUCUAGCAAUAUUACGCUCU | -3.22 ± 0.19 | -3.77 ± 0.31
43 | CGGAAGCAAUAUUACGCACU | -2.24 ± 0.13 | -0.396 ± 0.11
44 | GCCAAGCAAUAUUACGAUCA | -3.6 ± 0.21 | -1.2 ± 0.11
45 | AAGCAGCAAUAUUACGGGCA | -0.552 ± 0.072 | -0.789 ± 0.077
46 | CCAGAGCAAUAUUACGGAUA | -3.52 ± 0.22 | -1.91 ± 0.16
47 | AACGAGCAAUAUUACGCUGA | -1.64 ± 0.27 | -2.29 ± 0.39
48 | AUAGAGCAAUAUUACGAUUC | -2.37 ± 0.28 | -1.08 ± 0.33
